No end group written: not given here.
Assays:
[1] = molecular target: monoclonal anti-TCR Vβ antibody; test: ELISA OD with α-TCR Vβ on plate coated with CDR-H2 homodimer, against control (culture medium/PBS)
[2] = molecular target: monoclonal anti-TCR Vβ antibody; test: ELISA; plate coated with CDR-H2 homodimer, tested against α-TCR Vβ; mean ± SD of three observations
[3] = molecular target: monoclonal anti-TCR Vβ antibody; test: ELISA OD with α-TCR Vβ on plate coated with CDR-L3 homodimer, against control (culture medium/PBS)
[4] = molecular target: monoclonal anti-TCR Vβ antibody; test: ELISA; plate coated with CDR-L3 homodimer, tested against α-TCR Vβ; mean ± SD of three observations
[5] = molecular target: monoclonal anti-TCR Vβ antibody; test: ELISA OD with α-TCR Vβ on plate coated with CDR-H3 homodimer, against control (culture medium/PBS)
[6] = molecular target: monoclonal anti-TCR Vβ antibody; test: ELISA; plate coated with CDR-H3 homodimer, tested against α-TCR Vβ; mean ± SD of three observations

For CNIYPSDSYTNYNQKFKD (also: homodimer, linkage not given here) [CDR-H2 homodimer peptide (SEQ ID NO:8 with an added N terminal cysteine, dimerised)], the Ratio Test/Control [1] was 1.83 and the optical density [2] was 0.307 OD.

CQQYNSYPLT (also: homodimer, linkage not given here) [CDR-L3 homodimer peptide (SEQ ID NO:16 with an added N terminal cysteine, dimerised)] showed a Ratio Test/Control [3] of 1.74 and an optical density [4] of 0.243 OD.

CLRGLLPDY (also: homodimer, linkage not given here) [CDR-H3 homodimer peptide (SEQ ID NO:10 with an added N terminal cysteine, dimerised)] was tested, and the Ratio Test/Control [5] was 2 and the optical density [6] was 0.182 OD.

Source: patent US20090304577A1
